Experimental data as given in US20240117018A1.

Experiments:
Assay in all cases: cell-based or functional assay
[1] = molecular target: HIV-1 Env of pseudovirus 0815.v3.c3 (HIV-1)
[2] = molecular target: HIV-1 Env of pseudovirus 191084 B7-19 (HIV-1)
[3] = molecular target: HIV-1 Env of pseudovirus 191955_A11 (HIV-1)
[4] = molecular target: HIV-1 Env of pseudovirus 211-9 (HIV-1)
[5] = molecular target: HIV-1 Env of pseudovirus 231965.c01 (HIV-1)
[6] = molecular target: HIV-1 Env of pseudovirus 231966.c02 (HIV-1)
[7] = molecular target: HIV-1 Env of pseudovirus 235-47 (HIV-1)
[8] = molecular target: HIV-1 Env of pseudovirus 263-8 (HIV-1)
[9] = molecular target: HIV-1 Env of pseudovirus 3016.v5.c45 (HIV-1)
[10] = molecular target: HIV-1 Env of pseudovirus 3103.v3.c10 (HIV-1)
[11] = molecular target: HIV-1 Env of pseudovirus 3301.v1.c24 (HIV-1)
[12] = molecular target: HIV-1 Env of pseudovirus 6041.v3.c23 (HIV-1)
[13] = molecular target: HIV-1 Env of pseudovirus 620345.c01 (HIV-1)
[14] = molecular target: HIV-1 Env of pseudovirus 6480.v4.c25 (HIV-1)
[15] = molecular target: HIV-1 Env of pseudovirus 6540.v4.c1 (HIV-1)
[16] = molecular target: HIV-1 Env of pseudovirus 6545.v4.c1 (HIV-1)
[17] = molecular target: HIV-1 Env of pseudovirus 6952.v1.c20 (HIV-1)
[18] = molecular target: HIV-1 Env of pseudovirus 9004SS_A3_4 (HIV-1)
[19] = molecular target: HIV-1 Env of pseudovirus 928-28 (HIV-1)
[20] = molecular target: HIV-1 Env of pseudovirus A07412M1.vrc12 (HIV-1)
[21] = molecular target: HIV-1 Env of pseudovirus BJOX009000.02.4 (HIV-1)
[22] = molecular target: HIV-1 Env of pseudovirus BJOX015000.11.5 (HIV-1)
[23] = molecular target: HIV-1 Env of pseudovirus BJOX025000.01.1 (HIV-1)
[24] = molecular target: HIV-1 Env of pseudovirus BJOX028000.10.3 (HIV-1)
[25] = molecular target: HIV-1 Env of pseudovirus C3347.c11 (HIV-1)
[26] = molecular target: HIV-1 Env of pseudovirus C4118.c09 (HIV-1)
[27] = molecular target: HIV-1 Env of pseudovirus P0402_c2_11 (HIV-1)
[28] = molecular target: HIV-1 Env of pseudovirus P1981_C5_3 (HIV-1)
[29] = molecular target: HIV-1 Env of pseudovirus R1166.c01 (HIV-1)
[30] = molecular target: HIV-1 Env of pseudovirus R2184.c04 (HIV-1)
[31] = molecular target: HIV-1 Env of pseudovirus R3265.c06 (HIV-1)
[32] = molecular target: HIV-1 Env of pseudovirus T255-34 (HIV-1)
[33] = molecular target: HIV-1 Env of pseudovirus T257-31 (HIV-1)
[34] = molecular target: HIV-1 Env of pseudovirus T278-50 (HIV-1)
[35] = molecular target: HIV-1 Env of pseudovirus X1254_c3 (HIV-1)
[36] = molecular target: HIV-1 Env of pseudovirus X2131_C1_B5 (HIV-1)

Q: For N49P7.1 (antibody), which IC50 (neutralisation, TZM.bl cells) [1] is on record?
A: 0.023 µg/mL

Q: And the IC80 (neutralisation, TZM.bl cells) [1]?
A: 0.064 µg/mL

Q: And the MPI [1]?
A: 100

Q: And the IC50 [2]?
A: 0.069 µg/mL

Q: What about the IC80 [2] of the same substance?
A: 0.2 µg/mL

Q: What about the MPI [2] of the same substance?
A: 100

Q: What about the IC50 [3] of the same substance?
A: 1.99 µg/mL

Q: What about the IC80 [3] of the same substance?
A: 10.1 µg/mL

Q: What about the MPI [3] of the same substance?
A: 98

Q: What about the IC50 [4] of the same substance?
A: 0.34 µg/mL

Q: And the IC80 [4]?
A: 1.17 µg/mL

Q: And the MPI [4]?
A: 100

Q: What about the IC50 (neutralisation, TZM.bl cells) [5] of the same substance?
A: 0.106 µg/mL

Q: What about the IC80 (neutralisation, TZM.bl cells) [5] of the same substance?
A: 0.364 µg/mL

Q: And the MPI [5]?
A: 100

Q: And the IC50 (neutralisation, TZM.bl cells) [6]?
A: 0.203 µg/mL

Q: And the IC80 (neutralisation, TZM.bl cells) [6]?
A: 0.705 µg/mL

Q: And the MPI [6]?
A: 100

Q: And the IC50 [7]?
A: 0.078 µg/mL

Q: And the IC80 [7]?
A: 0.419 µg/mL

Q: What about the MPI [7] of the same substance?
A: 97

Q: What about the IC50 [8] of the same substance?
A: 0.104 µg/mL

Q: And the IC80 [8]?
A: 0.392 µg/mL

Q: What about the MPI [8] of the same substance?
A: 100

Q: What about the IC50 (neutralisation, TZM.bl cells) [9] of the same substance?
A: 0.559 µg/mL

Q: And the IC80 (neutralisation, TZM.bl cells) [9]?
A: 2.54 µg/mL

Q: What about the MPI [9] of the same substance?
A: 100

Q: And the IC50 (neutralisation, TZM.bl cells) [10]?
A: 0.229 µg/mL

Q: And the IC80 (neutralisation, TZM.bl cells) [10]?
A: 0.772 µg/mL

Q: And the MPI [10]?
A: 100

Q: What about the IC50 (neutralisation, TZM.bl cells) [11] of the same substance?
A: 0.041 µg/mL

Q: What about the IC80 (neutralisation, TZM.bl cells) [11] of the same substance?
A: 0.111 µg/mL

Q: What about the MPI [11] of the same substance?
A: 100

Q: And the IC50 (neutralisation, TZM.bl cells) [12]?
A: 0.078 µg/mL

Q: And the IC80 (neutralisation, TZM.bl cells) [12]?
A: 0.366 µg/mL

Q: What about the MPI [12] of the same substance?
A: 100

Q: And the IC50 [13]?
A: > 50 µg/mL

Q: And the IC80 [13]?
A: > 50 µg/mL

Q: And the MPI [13]?
A: 47

Q: And the IC50 (neutralisation, TZM.bl cells) [14]?
A: 0.056 µg/mL

Q: And the IC80 (neutralisation, TZM.bl cells) [14]?
A: 0.192 µg/mL

Q: And the MPI [14]?
A: 100

Q: And the IC50 (neutralisation, TZM.bl cells) [15]?
A: 14.7 µg/mL

Q: And the IC80 (neutralisation, TZM.bl cells) [15]?
A: > 50 µg/mL

Q: What about the MPI [15] of the same substance?
A: 75

Q: What about the IC50 (neutralisation, TZM.bl cells) [16] of the same substance?
A: 1.15 µg/mL

Q: And the IC80 (neutralisation, TZM.bl cells) [16]?
A: 16 µg/mL

Q: And the MPI [16]?
A: 92

Q: And the IC50 (neutralisation, TZM.bl cells) [17]?
A: 26.3 µg/mL

Q: What about the IC80 (neutralisation, TZM.bl cells) [17] of the same substance?
A: > 50 µg/mL

Q: What about the MPI [17] of the same substance?
A: 71

Q: And the IC50 [18]?
A: 0.221 µg/mL

Q: What about the IC80 [18] of the same substance?
A: 0.841 µg/mL

Q: And the MPI [18]?
A: 100

Q: What about the IC50 [19] of the same substance?
A: 0.23 µg/mL

Q: What about the IC80 [19] of the same substance?
A: 0.775 µg/mL

Q: What about the MPI [19] of the same substance?
A: 100

Q: And the IC50 (neutralisation, TZM.bl cells) [20]?
A: 0.232 µg/mL

Q: What about the IC80 (neutralisation, TZM.bl cells) [20] of the same substance?
A: 1.07 µg/mL

Q: And the MPI [20]?
A: 100

Q: What about the IC50 [21] of the same substance?
A: 0.219 µg/mL

Q: And the IC80 [21]?
A: 0.756 µg/mL

Q: What about the MPI [21] of the same substance?
A: 100

Q: What about the IC50 [22] of the same substance?
A: 0.111 µg/mL

Q: And the IC80 [22]?
A: 0.487 µg/mL

Q: What about the MPI [22] of the same substance?
A: 100

Q: What about the IC50 [23] of the same substance?
A: 0.057 µg/mL

Q: And the IC80 [23]?
A: 0.378 µg/mL

Q: What about the MPI [23] of the same substance?
A: 100

Q: What about the IC50 [24] of the same substance?
A: 0.031 µg/mL

Q: What about the IC80 [24] of the same substance?
A: 0.29 µg/mL

Q: What about the MPI [24] of the same substance?
A: 100

Q: What about the IC50 [25] of the same substance?
A: 0.048 µg/mL

Q: What about the IC80 [25] of the same substance?
A: 0.161 µg/mL

Q: What about the MPI [25] of the same substance?
A: 100

Q: What about the IC50 [26] of the same substance?
A: 0.048 µg/mL

Q: What about the IC80 [26] of the same substance?
A: 0.216 µg/mL

Q: And the MPI [26]?
A: 100

Q: What about the IC50 [27] of the same substance?
A: 0.029 µg/mL

Q: What about the IC80 [27] of the same substance?
A: 0.115 µg/mL

Q: What about the MPI [27] of the same substance?
A: 100

Q: And the IC50 (neutralisation, TZM.bl cells) [28]?
A: 0.216 µg/mL

Q: And the IC80 (neutralisation, TZM.bl cells) [28]?
A: 0.494 µg/mL

Q: What about the MPI [28] of the same substance?
A: 100

Q: What about the IC50 [29] of the same substance?
A: 0.136 µg/mL

Q: What about the IC80 [29] of the same substance?
A: 0.461 µg/mL

Q: What about the MPI [29] of the same substance?
A: 100

Q: What about the IC50 [30] of the same substance?
A: 0.018 µg/mL

Q: What about the IC80 [30] of the same substance?
A: 0.04 µg/mL

Q: What about the MPI [30] of the same substance?
A: 100

Q: And the IC50 [31]?
A: 0.059 µg/mL

Q: And the IC80 [31]?
A: 0.328 µg/mL

Q: What about the MPI [31] of the same substance?
A: 100

Q: And the IC50 [32]?
A: 0.094 µg/mL

Q: And the IC80 [32]?
A: 0.447 µg/mL

Q: What about the MPI [32] of the same substance?
A: 100

Q: What about the IC50 [33] of the same substance?
A: 0.209 µg/mL

Q: And the IC80 [33]?
A: 1.04 µg/mL

Q: And the MPI [33]?
A: 100

Q: What about the IC50 [34] of the same substance?
A: 42.4 µg/mL

Q: And the IC80 [34]?
A: > 50 µg/mL

Q: And the MPI [34]?
A: 56

Q: What about the IC50 [35] of the same substance?
A: 3.96 µg/mL

Q: What about the IC80 [35] of the same substance?
A: 18.2 µg/mL

Q: And the MPI [35]?
A: 96

Q: And the IC50 (neutralisation, TZM.bl cells) [36]?
A: 0.129 µg/mL

Q: And the IC80 (neutralisation, TZM.bl cells) [36]?
A: 0.431 µg/mL

Q: And the MPI [36]?
A: 100
